# From patent publication US11466067B2 (priority 2019, dated 2022)
# Experiments:
# [1] = Tablet compression force screening: tablet properties, dimer purity and recovery; format: physicochemical
# Method: Various compression forces were used to create F1 tablets (TABLE 31) and F2 tablets (TABLE 32). Dimer purity of the target construct was also examined following compaction into a tablet. […] Dimer recovery was also assessed following dissolution of various tablets at pH 7.0 (FIGS. 20A-20D).
# An additional tablet (F3) was created, which was similar to an F1 tablet but with glyceryl dibehenate in place of magnesium stearate (TABLE 33). This substitution was made due to incompatibility of magnesium stearate in dissolution of target constructs in solution.
# IL-1Ra = assay: Single oral capsule dose in NHP: plasma IL-1Ra; format: in vivo, Macaca fascicularis
# Method: The purpose of the IL-1Ra assay was to measure endogenous IL-1Ra in NHP plasma. The antibody pair in this sandwich immunoassay reacted with both human and NHP IL-1Ra. Samples were quantitated using an 8-point standard curve prepared from a human IL-1Ra calibrator (ranging from 5.5-4021 pg/mL, plus 0 pg/mL). Biotinylated anti-NHP IL-1Ra capture antibody was added to a MSD Small Spot Streptavidin plate and incubated for an hour at RT with shaking. Controls that represent low ([…]), mid ([…]) and high concentrations (3245 pg/mL) were prepared in pooled plasma, Standards (Calibrator 9 Blend) were prepared in Diluent 43 (MSD Cat No R50AG), and samples diluted 10 fold in Diluent 43. Standards, controls and diluted samples were added to the assay plate, and the plate incubated for 2 hours at room temperature with shaking. The plate was washed 3 times with PBST, and 1×SULFO TAG anti-IL-1Ra Antibody added to the plate. The plate was incubated for 1 hour at room temperature with shaking. Following a wash step, 2×MSD Read buffer was added to the wells of the plate, and the plate read using the MSD Sector Imager 600 plate reader. The lower limit of detection of each analyte is defined as 2.5 standard deviation above background.
# IL-10 delivery construct dosing at multiple fixed doses in non-naïve adult male Macaca fascicularis was conducted by Valley Biosystems (West Sacramento, Calif.). […] Dosing groups are described in TABLE 45.
# Blood samples were collected in K2EDTA tubes from each animal pre-dose and at 0.5, 1, 2, 3, 4, 5, 6, 7, 8, and 24 hours post-dose. Animals were returned to home cages following the 2-hour sample collection. Following physical restraint, blood samples were collected via direct venous puncture using a cephalic, femoral or saphenous vein, which were processed to plasma and stored frozen at −60° C. until shipment.
# STAT3, IL-1Ra = assay: pSTAT3/STAT3 and systemic IL-1Ra in non-inflamed mice (ELISA MSD); format: in vivo
# [2] = Phase 1a single ascending dose in healthy male volunteers; format: in vivo, human; conditions: 60 and 120 mg
# Method: In part B of the study, early data was gathered on the safety and tolerability, pharmacokinetics, pharmacodynamics and early clinical response following multiple ascending doses of the IL-10 delivery construct in Ulcerative Colitis (UC) patients (Part B).
# Part A consisted of a single-ascending dose (SAD) escalation in healthy male volunteers. Six cohorts consisting of orally administered single ascending doses were conducted. At each dose level, 6 subjects were enrolled, randomized 2:4 to receive a single dose of placebo or the IL-10 delivery construct on day 1. The doses selected were 1 mg, 3 mg, 10 mg, 30 mg, 60 mg, and 120 mg.
# Pre-clinical models have identified peripheral IL-1Ra production as a marker of IL-10 engagement to IL-10R in mucosal lymphocytes. To determine if the IL-10 delivery construct was actively transported across the epithelial cell lining into the Lamina propria and able to interact with lymphocytes, the levels of IL-1Ra induction was assessed.
# enterocytes = assay: Vesicular trafficking co-localization (Rab7, Rab11, LMAN1, LAMP1) in jejunum; format: in vivo, rat
# Excerpt: The timing of LMAN1 redistribution to the basal compartment coincides with the presence of hIL-10 being ultimately detected in non-polarized cells within the Lamina propria where it was not associated with LMAN1.
# Ultimately, the delivery construct is delivered to lysosome-like structures within a large fraction of cells within the Lamina propria, an outcome that would limit its systemic distribution following A-B transcytosis.
# [3] = Intracolonic spray in NHP: IL-1Ra, pSTAT3, construct, IL-10; format: in vivo, cynomolgus monkeys
# Excerpt: This was achieved using a colonoscope with an associated spray nozzle. In this way, refined information for onset and duration of IL-1Ra induction could be obtained at specific local doses. […] The variability of pSTAT3/total STAT3 detected was consistent with tissue capture and stability challenges in this in vivo model. Measurement of tissue delivery construct levels had similar tissue capture and stability challenges, showing low and variable amounts in the tissue samples collected (FIG. 143). […] Since IL-10 can induce cells to produce more IL-10, we also looked for induced IL-10. […] It is important to note, due to the similarity of human and NHP IL-10, that ELISA values shown could also include hIL-10 that has somehow separated from the carrier domain of the delivery construct molecule. While this cannot be ruled out, no other data supports this as an outcome and it appears likely that the majority, if not all, tissue and serum IL-10 measured represents an NHP source.
# [4] = Process trains with S-650F cation exchange: yield, recovery, purity, endotoxin
# Method: Refolding was carried out at 4° C. in a refolding solution containing 1 mM reduced glutathione, 0.5 mM oxidized glutathione, 1M Arginine-HCl, 250 mM sucrose, 100 mM Tris pH 8.5 at 4° C., and 2 mM EDTA. […] Buffer A for the CHT bind/elute step in Table 56 may also comprise 25 mM Tris, pH7.5, 300 mM NaCl, 5.0 mM NaPi, 0.5 mM CaCl2. Columns used are described in Table 58.
# The yield, recovery, and purity of the IL-10 delivery construct was assess after each step, and after each process train.
# [5] = Control process train: Capto Q, CHT (Linear elution), based on historical data
# [6] = PT1: Capto Q, S-650F, CHT (FT mode)
# [7] = PT2: Capto Q, CHT (Step elution), S-650F
# [8] = PT3: S-650F, Capto Q, CHT (FT mode)
molecule,measurement,setting,value
"IL-10 delivery construct: recombinant homodimeric fusion protein: N-terminal methionine, cholix386 domain, polyGlySer spacer, recombinant human IL-10 (protein, homodimer) MVEEALNIFDECRSPCSLTPEPGKPIQSKLSIPSDVVLDEGVLYYSMTINDEQNDIKDEDKGESIITIGEFATVRATRHYVNQDAPFGVIHLDITTENGTKTYSYNRKEGEFAINWLVPIGEDSPASIKISVDELDQQRNIIEVPKLYSIDLDNQTLEQWKTQGNVSFSVTRPEHNIAISWPSVSYKAAQKEGSRHKRWAHWHTGLALCWLVPMDAIYNYITQQNCTLGDNWFGGSYETVAGTPKVITVKQGIEQKPVEQRIHFSKGNAMSALAAHRVCGVPLETLARSRKPRDLTDDLSCAYQAQNIVSLFVATRILFSHLDSVFTLNLDEQEPEVAERLSDLRRINENNPGMVTQVLTVARQIYNDYVTHHPGLTPEQTSAGAQAGGGGSGGGGSGGGGSPGQGTQSENSCTHFPGNLPNMLRDLRDAFSRVKTFFQMKDQLDNLLLKESLLEDFKGYLGCQALSEMIQFYLEEVMPQAENQDPDIKAHVNSLGENLKTLRLRLRRCHRFLPCENKSKAVEQVKNAFNKLQEKGIYKAMSEFDIFINYIEAYMTMKIRN","robustness of protein to compaction, granulation and tableting (dimer purity)",[1],"robust to compaction and granulation, although some aggregation was observed in final tablet form"
same,time of plasma IL-1Ra Cmax,IL-1Ra; 82 mg,3 hours post-dose
same,dose response of IL-1Ra Cmax,"IL-1Ra; 1, 4 and 20.5 mg",No dose response relationship
same,time by which plasma IL-1Ra returned to baseline,IL-1Ra; all dose groups,≤ 24 hour post-dose
same,increase in ratio of pSTAT3 to total STAT3,"STAT3, IL-1Ra; construct 1 mg/kg, rhIL-10 0.9 mg/kg (equimolar), non-inflamed colon tissue",approximately 50%
same,increase of systemic IL-1Ra,"STAT3, IL-1Ra; construct 10 mg/kg, rhIL-10 3 mg/kg (equimolar)",about 3 fold
same,IL-1Ra induction at high dose,[2],loss of immunomodulatory activity
same,co-localization with LAMP1 in polarized enterocytes,enterocytes; 1-15 min post ILI,Limited LAMP1/delivery construct co-localizations
same,co-localization with LMAN1,enterocytes; 1-15 min post ILI,co-localized with redistributing LMAN1
same,co-localization with LAMP1 in non-polarized cells of Lamina propria,enterocytes; 10 min and 15 min post ILI,extensive LAMP1/delivery construct co-localizations
same,co-localization with Rab7+ vesicles,enterocytes; enterocytes,predominantly in the apical vesicular compartment
same,co-localization with Rab11+ vesicles,enterocytes; enterocytes,mostly in the basal vesicular compartment
same,serum levels of the delivery construct,"[3]; cynomolgus monkey, in vivo",below the assay detection limit
same,tissue IL-10 levels,[3]; within 15 min,dose-dependent and transient increases
same,Endotoxin,[4]; [5],*8 EU/mg
same,Purity,[4]; [5],*85%
same,Yield,"[4]; Control: Capto Q ImpRes, CHT gradient B/E",68 mg
same,Endotoxin,[4]; [6],8.9 EU/mg
same,Purity,[4]; [6],92%
same,Yield,"[4]; PT2: Capto Q ImpRes, CHT step B/E 80 mM NaPi, S-650F",26 mg
same,Endotoxin,[4]; [7],5 EU/mg
same,Purity,[4]; [7],91%
same,Endotoxin,[4]; [8],0.4 EU/mg
same,Purity,[4]; [8],96%
